Data from PMC5207153, “Differential Receptor Binding and Regulatory Mechanisms for the Lymphangiogenic Growth Factors Vascular Endothelial Growth Factor (VEGF)-C and -D*^([image sbox.jpg])” (The Journal of Biological Chemistry, 2016).

B1: VEGF-DΔNΔC [human] / Recombinant human VEGFR-3-Fc chimera [human] (parent complex)
chain 1: FYDIETLKVIDEEWQRTQCSPRETCVEVASELGKSTNTFFKPPCVNVFRCGGCCNEESLICMNTSTSYISKQLFEISVPLTSVPELVPVKVANHTGCKCLPTAPRHPYS
chain 2: YSMTPPTLNITEESHVIDTGDSLSISCRGQHPLEWAWPGAQEAPATGDKDSEDTGVVRDCEGTDARPYCKVLLLHEVHANDTGSYVCYYKYIKARIEGTTAASSYVFVRDFEQPFINKPDTLLVNRKDAMWVPCLVSIPGLNVTLRSQSSVLWPDGQEVVWDDRRGMLVSTPLLHDALYLQCETTWGDQDFLSNPFLVHITGNELYDIQLLPRKSLELLVGEKLVLNCTVWAEFNSGVTFDWDYPGKQAERGKWVPERRSQQTHTELSSILTIHNVSQHDLGSYVCKANNGIQRFRESTEVIVHENPFISVEWLKGPILEATAGDELVKLPVKLAAYPPPEFQWYKDGKALSGRHSPHALVLKEVTEASTGTYTLALWNSAAGLRRNISLELVVNVPPQIHEKEASSPSIYSRHSRQALTCTAYGVPLPLSIQWHWRPWTPCKMFAQRSLRRRQQQDLMPQCRDWRAVTTQDAVNPIESLDTWTEFVEGKNKTVSKLVIQNANVSAMYKCVVSNKVGQDERLIYFYVTTIPDGFTIESKPSEELLEGQPVLLSCQADSYKYEHLRWYRLNLSTLHDAHGNPLLLDCKNVHLFATPLAASLEEVAPGARHATLSLSIPRVAPEHEGHYVCEVQDRRSHDKHCHKKYLSVQALEAPRLTQNLTDLLVNVSDSLEMQCLVAGAHAPSIVWYKDERLLEEKSGVDLADSNQKLSIQRVREEDAGRYLCSVCNAKGCVNSSASVAVEGSEDKGSME

Variants of: B1
Assay: ELISA; The same amount of each VEGF-DΔNΔC variant was used; assays conducted three times; parent: 100; read off a plot

Going from chain 1 D11A to chain 1 F1A, the percent of parent falls from roughly 160% to roughly 72%.

First: chain 1 V9A
Second: chain 1 T6A
The percent of parent of the first is higher: roughly 100% for the first, roughly 97% for the second.

Compared with chain 1 R16A, chain 1 Y2A is lower in percent of parent: roughly 100% for the first, roughly 23% for the second.

First: chain 1 D3A
Second: chain 1 Q15A
The percent of parent of the first is lower: roughly 96% for the first, roughly 110% for the second.

First: chain 1 E12A
Second: chain 1 I4A
The percent of parent of the first is higher: roughly 100% for the first, roughly 99% for the second.

chain 1 E13A was tested, and the percent of parent was roughly 13%.
